Measured values: PMC12311110

Experiments:
VPS35, Q96QK1 = assay: GFP-based co-IP, western blot band quantification; conditions: chain shown with the change; HEK293T cells, transient transfection; normalised to GFP band intensity; n = 3; parent: est. 100; read off a plot
endogenous VPS26, O75436 = assay: GFP-based co-IP, western blot band quantification; conditions: chain shown with the change; HEK293T cells, transient transfection; normalised to GFP band intensity; n = 3; parent: est. 100; read off a plot

B1: GFP-DENND4C fragment 1087-1271, WT, Q5VZ89 Y1239D (protein)
chain: PKTSLLHIARTHSFENVSCHLPDSRTCMSESTWNPEHRSSPVPEMLEESQELLEPVVDDVPKTTATVDTYESLLSDSNSNQSRDLKTVSKDLRNKRSSLYGIAKVVQREDVETGLDPLSLLATECTGGKTPDSEDKLFSPVIARNLADEIESDMNLKSPLGSKSSSMELHREENRESGMTTAFIH
percent of parent (relative intensity (WT = 100)) (VPS35, Q96QK1): 22 | percent of parent (relative intensity (WT = 100)) (endogenous VPS26, O75436): 18
